# T1: mouse CSF-1R C432S/C439S mutant expressed on M-/- macrophages (M-/-.C432/439SCSF-1R cells) (mouse, UniProt P09581 20-977)
# T1 sequence: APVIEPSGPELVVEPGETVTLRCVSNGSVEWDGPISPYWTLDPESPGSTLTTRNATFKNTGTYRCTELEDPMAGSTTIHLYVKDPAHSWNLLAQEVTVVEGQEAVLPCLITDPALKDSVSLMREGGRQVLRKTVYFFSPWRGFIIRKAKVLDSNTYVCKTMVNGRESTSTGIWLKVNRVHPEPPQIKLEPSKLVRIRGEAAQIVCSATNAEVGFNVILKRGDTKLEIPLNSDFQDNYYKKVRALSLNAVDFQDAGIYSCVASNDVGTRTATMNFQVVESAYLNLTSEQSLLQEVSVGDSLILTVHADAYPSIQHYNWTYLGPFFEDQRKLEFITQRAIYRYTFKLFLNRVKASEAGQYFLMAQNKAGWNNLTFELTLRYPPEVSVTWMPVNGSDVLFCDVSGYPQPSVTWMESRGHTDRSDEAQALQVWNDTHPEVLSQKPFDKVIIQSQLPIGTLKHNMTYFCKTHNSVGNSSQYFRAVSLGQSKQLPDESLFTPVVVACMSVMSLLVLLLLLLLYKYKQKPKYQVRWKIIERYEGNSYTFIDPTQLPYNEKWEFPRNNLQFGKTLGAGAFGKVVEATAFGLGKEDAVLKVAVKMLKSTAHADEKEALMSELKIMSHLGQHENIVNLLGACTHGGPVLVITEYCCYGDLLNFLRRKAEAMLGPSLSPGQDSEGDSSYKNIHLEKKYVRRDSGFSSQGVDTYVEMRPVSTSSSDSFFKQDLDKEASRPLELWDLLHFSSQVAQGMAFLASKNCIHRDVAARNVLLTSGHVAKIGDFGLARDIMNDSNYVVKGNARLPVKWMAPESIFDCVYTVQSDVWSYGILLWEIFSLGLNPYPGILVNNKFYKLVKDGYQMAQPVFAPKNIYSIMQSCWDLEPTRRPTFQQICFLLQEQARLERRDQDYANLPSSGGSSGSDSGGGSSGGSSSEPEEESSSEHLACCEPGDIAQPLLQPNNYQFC
# Experiments:
# [1] = molecular target: T1, mouse CSF-1R C432S/C439S mutant …; test: cell-based or functional assay
# [2] = molecular target: T1, mouse CSF-1R C432S/C439S mutant …; test: CSF-1 binding to upregulated cells carrying the receptor, FIG. 14
binder,measurement,setting,value
"purified human recombinant CSF-1 (ligand, UniProt P09603 36-253, looked up, also called human CSF-1; colony stimulating factor-1) SEYCSHMIGSGHLQSLQRLIDSQMETSCQITFEFVDQEQLKDPVCYLKKAFLLVQDIMEDTMRFRDNTPNAIAIVQLQELSLRLKSCFTKDYEEHDKACVRTFYETPLQLLEKVKNVFNETKNLLDKDWNIFSKNCNNSFAECSSQDVVTKPDCNCLYPKAIPSSDPASVSPHQPLAPSMAPVAGLTWEDSEGTEGSSLLPGEQPLHTVDPGSAKQRP",fold decrease in CSF-1-induced tyrosine phosphorylation and ubiquitination of cells starved of CSF-1 for 24 h,[1],~5 fold
same,maximum CSF-1 binding relative to WT CSF-1R,[2],~70%

# Reference: patent publication US20100298217A1 (published 2010)
